According to paper PMC3086075:

How the values were obtained:
Test in all cases: discontinuous malachite green phosphate-release assay, Michaelis-Menten fit
Format in all cases: biochemical, Pasteurella multocida
Details in all cases: 200 mM sodium acetate pH 5.5, 1 mM MgCl2, 37 °C, apparent Km
[1] = substrate: O=[N+]([O-])c1ccc(OP(=O)(O)O)cc1
[2] = substrate: Nc1ncnc2c1ncn2[C@@H]1O[C@H](CO)[C@@H](O)[C@H]1OP(=O)(O)O
[3] = substrate: Nc1ncnc2c1ncn2[C@@H]1O[C@H](COP(=O)(O)O)[C@@H](O)[C@H]1O
[4] = substrate: Nc1ncnc2c1ncn2[C@@H]1O[C@H](CO)[C@@H](OP(=O)(O)O)[C@H]1O
[5] = substrate: NC(=O)c1ccc[n+]([C@@H]2O[C@H](COP(=O)([O-])O)[C@@H](O)[C@H]2O)c1

B1: rPmCCAP (Pasteurella multocida) (protein)
chain: SNQQAVEQANQAKLQQQVAMGLIWTQQSGEYAALAHQAFNSAKMAFDHAKAKKGKKKAVVVDLDETMIDNSAYAGWQVQSGQGFSPKTWTKWVDARQSAAIPGAVEFSNYVNANGGTMFFVSNRRDDVEKAGTVDDMKRLGFTGVNDKTLLLKKDKSNKSVRFKQVEDMGYDIVLFVGDNLNDFGDATYKKSNAERRDFVAKNSKAFGKKFIVLPNTQYGDWEGGLDKNYFKGDSQSKLDVRAKAIHAWDGK
[1]
  Km: 500 ± 100 µM
  kcat: 6.2 ± 0.5 s⁻¹
  kcat/Km: 12000 ± 2700 M⁻¹ s⁻¹
[2]
  Km: 1400 ± 300 µM
  kcat: 0.13 ± 0.01 s⁻¹
  kcat/Km: 90 ± 21 M⁻¹ s⁻¹
[3]
  Km: 80 ± 10 µM
  kcat: 0.18 ± 0.01 s⁻¹
  kcat/Km: 2300 ± 310 M⁻¹ s⁻¹
[4]
  Km: 800 ± 200 µM
  kcat: 0.19 ± 0.01 s⁻¹
  kcat/Km: 240 ± 61 M⁻¹ s⁻¹
[5]
  Km: 290 ± 60 µM
  kcat: 4.4 ± 0.3 s⁻¹
  kcat/Km: 15000 ± 3300 M⁻¹ s⁻¹
